Measurements from PMC3506619 (PLoS ONE, 2012).

B1: refolded methionine adenosyltransferase II catalytic α2 subunit (human MAT2A) (enzyme)
chain: not shown
notes: human MAT2A ORF from lymphocyte RNA, non-tagged; all cloned ORFs carried A233V and G193S against previously reported cDNAs; Dimer by gel filtration at low concentration, dimer and tetramer at higher concentration; Runs as a double band (α2 and α2′) on SDS-PAGE; The ITC methods say only 'α2 subunit'; also called MAT α2

Legend:
[1] = target: B1; test: SEC; equimolar refolded α2 and β (wild type, mutant or truncated) mixed 1 h at 4°C, hetero-oligomer isolated on Biogel A 1.5 m in 50 mM Tris/HCl pH 8, 10 mM MgSO4, 50 mM KCl; peak on SDS-PAGE, densitometric scanning of Coomassie-stained bands; conditions: both partners purified
[2] = target: the molecule itself; test: SEC; analytical gel filtration on Superose 12 10/300 GL, refolded α2 at higher protein concentration (200 µg injected), 20 mM Tris/HCl pH 8, 10 mM MgSO4, 150 mM KCl; detection by MAT activity and dot blot
[3] = target: the molecule itself; test: SEC; analytical gel filtration on Superose 12 10/300 GL, refolded α2 50 µg injected, 20 mM Tris/HCl pH 8, 10 mM MgSO4, 150 mM KCl; detection by MAT activity and dot blot

Row | (α2+α2′)/β subunit ratio [1] | Binder | stoichiometry N [2] | stoichiometry N [3]
1 | 2 | ΔS16 truncated β subunit of methionine adenosyltransferase II (domain or fragment, human) GSHSCRLVEEEVNIPNRRVLVTGATGLLGRAVHKEFQQNNWHAVGCGFRRARPKFEQVNLLDSNAVHHIIHDFQPHVIVHCAAERRPDVVENQPDAASQLNVDASGNLAKEAAAVGAFLIYISSDYVFDGTNPPYREEDIPAPLNLYGKTKLDGEKAVLENNLGAAVLRIPILYGEVEKLEESAVTVMFDKVQFSNKSANMDHWQQRFPTHVKDVATVCRQLAEKRMLDPSIKGTFHWSGNEQMTKYEMACAIADAFNLPSSHLRPITDSPVLGAQRPRNAQLDCSKLETLGIGQRTPFRIGIKESLWPFLIDKRWRQTVFH |  | 
2 |  | B1 | 4 | 2
